Measurements taken from patent publication US20230181748A1 (VIB VZW, published 2023).

Target: preformed, sonicated Aβ aggregates (UniProt P05067 672-713)
Experiment: cell-based or functional assay

preformed, sonicated Aβ aggregates, sequence (P05067 672-713): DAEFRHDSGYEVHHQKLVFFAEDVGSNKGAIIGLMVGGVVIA

aggregation seeding capacity of Aβ in Aβ biosensor cells (IC50): 1.42 µM
Binder: KLWFFAGSGAPIGL [AbCap_25]
